Assay [1] has as its target T1, recombinant human CD300LB overexpressed on Jurkat cells (human, UniProt A8K4G0 18-201).
T1 construct: also called huCD300LB; huCD300LB-expressing Jurkat cells
T1 sequence: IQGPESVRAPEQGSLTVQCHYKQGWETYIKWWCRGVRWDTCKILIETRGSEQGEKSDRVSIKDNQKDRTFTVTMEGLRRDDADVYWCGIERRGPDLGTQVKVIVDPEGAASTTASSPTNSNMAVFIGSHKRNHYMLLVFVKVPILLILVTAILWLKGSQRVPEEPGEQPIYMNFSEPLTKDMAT
Put plainly: flow cytometry, geometric mean (APC-A), Jurkat cells overexpressing huCD300LB. As to the method: Purified anti-CD300LB antibodies of the present disclosure were evaluated for their binding affinity to either Jurkat cells overexpressing recombinant huCD300LB or BaF/3 cells overexpressing recombinant muCD300LB. Binding of anti-CD300LB antibodies to the cells was determined as follows. Cells were harvested, washed, and labeled with propidium iodide for viability discrimination. After washing the cells with PBS, 1×10⁵ cells were aliquoted per well in 96-well U-bottom plates and incubated with 100 μL of purified anti-CD300LB antibody at various concentrations in FACS buffer (PBS+2% FBS). After this primary incubation, the supernatant was removed via centrifugation, the cells washed twice with 150 μL of ice-cold FACS buffer, and then incubated with the appropriate secondary antibody on ice for 30 minutes. Following the secondary antibody incubation, the cells were again washed twice with ice-cold FACS buffer and resuspended in a final volume of 200 L FACS buffer. Flow cytometry analysis was then performed using the FACSCanto system (BD Biosciences).
To determine affinity, antibodies at increasing concentrations were used to stain Jurkat cells overexpressing huCD300LB and geometric MFI values measured by the flow cytometer were analyzed on Prism (Graphpad) software.
For orientation: A flow cytometer gives signals particle by particle.

Assay [2] deals with T2, murine CD300LB-Fc (mouse).
T2 construct: mouse IgG2a-Fc fusion (R&D Systems); the entry is the whole fusion chain; also called mCD300LB; Mouse CD300LB-Fc
T2 chain: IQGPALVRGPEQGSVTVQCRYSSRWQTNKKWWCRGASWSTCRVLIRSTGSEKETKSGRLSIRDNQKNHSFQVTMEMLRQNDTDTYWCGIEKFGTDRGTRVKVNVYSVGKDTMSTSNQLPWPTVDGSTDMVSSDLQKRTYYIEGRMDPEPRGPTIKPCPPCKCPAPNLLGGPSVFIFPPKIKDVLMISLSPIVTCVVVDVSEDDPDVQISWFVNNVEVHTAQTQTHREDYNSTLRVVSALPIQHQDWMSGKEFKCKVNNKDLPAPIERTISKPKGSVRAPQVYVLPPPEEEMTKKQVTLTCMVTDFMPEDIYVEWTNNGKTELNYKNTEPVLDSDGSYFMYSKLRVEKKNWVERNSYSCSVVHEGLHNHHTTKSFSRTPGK
The experiment in a line: SPR (Carterra LSA), antibody immobilised, Fc fusion at 300 or 600 nM. As to the method: Binding of mouse anti-CD300LB IgG1 antibodies of the present disclosure to human and murine CD300 orthologs were evaluated by surface plasmon resonance (SPR) using a Carterra LSA instrument (Carterra, Salt Lake City, UT). […] A HC200M sensor chip (Carterra) was activated using the single channel flow cell with a 7-minute injection of a 1:1:1 mixture of 100 mM MES pH 5.5, 100 mM sulfo-NHS, 400 mM EDC (all reconstituted in MES pH 5.5; 100 μL of each mixed in vial immediately before running assay). After switching to the multi-channel array flow cell, the antibodies were injected over the activated chip in a 96-spot array for 10 minutes. The remaining unconjugated active groups on the chip were then blocked by injecting 1M Ethanolamine pH 8.5 (Carterra) for 7 minutes using the single channel flow cell. After priming with running buffer (HBS-TE, Carterra) with 0.5 mg/ml BSA (Sigma), the immobilized anti-CD300LB antibodies were tested for their ability to bind human and mouse recombinant CD300LB extracellular domains. Human CD300 family members and mouse CD300A were hIgG1-Fc fusions, while mouse CD300LB, mouse CD300C, mouse CD300D, and mouse CD300E were mouse IgG2a-Fc fusions (R&D Systems). Binding was assessed by injecting each analyte over the entire antibody array using the single channel flow cell. CD300 analytes were diluted to 300 nM or 600 nM in running buffer and injected in series without regeneration. Two or three buffer blanks were run between each mouse or human ortholog, respectively. Data were processed and analyzed using NextGenKIT high-throughput kinetics analysis software (Carterra).
Results of anti-CD300LB antibody binding to human CD300 family members is provided below in Table 7.

B1: anti-CD300LB antibody CD-05 (antibody, V domains shown)
VH: QVQLVQSGAEVKKPGASVKVSCKASGYTFSRYYINWVRQAPGQGLEWMGWINPNSGGTNYAQKFQGRVTMTRDTSTSTVYMELSSLRSEDTAVYYCTTDQLRFGKTGPYYGMDVWGQGTTVTVSS
VL: DIQMTQSPSSLSASVGDRVTITCRASQNIGTYLNWYQQKPGKAPKLLIYAASSLQSGVPSRFSGSGSGTDFTLTISSLQPEDFATYYCQQSYSDTLTFGGGTKVEIK
The term EC50 (read off the curve) denotes the concentration at which the effect is half-maximal. In the case of B1, in assay [1], the half-maximal effective concentration (EC50 (read off the curve)) was ~20 nM.

B2: anti-CD300LB antibody CD-01 (antibody, V domains shown)
VH: RVQLQQSGAELVRPGASVTLSCKASGFTFTDFEMHWVKKTPVHGLEWIGAIDPESGNTAYNQKFRGKATLTADKSSSTAYMELRYLTSEDSAVYYCTPLISGADYWGQGTTLTVSS
VL: DVVMTQSPLSLPVSLGDQASISCRSSQSLVHSDGNTYLYWYLQKPGQSPKLLIYKVSNRFSGVPDRFSGSGSGTDFTFKISRVGAEDLGVYFCSQSTHVPWTFGGGTKLEII
With B2, the “SPR binding (control subtracted)” value in assay [2] was determined as 29.

For the origin of these results see US20240254227A1 (Alector, published 2024).
